Assay results as given in patent US20240158515A1, “ANTI-FGFR3 ANTIBODIES AND ANTIGEN-BINDING FRAGMENTS AND METHODS OF USE THEREOF” (Regeneron Pharmaceuticals, Inc., priority 2022, published 2024).
pIC50: −log10 of the molar value.

Legend:
[1] = biological target: T1, hFGFR3c-hFc binding to hFGF acidic protein (Homo sapiens, UniProt P22607); experiment: ELISA blocking of hFGFR3c-hFc binding to hFGF acidic
T1 construct: hFGFR3c extracellular domain (amino acids Glu23-Gly375); purchased R&D Systems 766-FR-050
T1 sequence (P22607 23-375): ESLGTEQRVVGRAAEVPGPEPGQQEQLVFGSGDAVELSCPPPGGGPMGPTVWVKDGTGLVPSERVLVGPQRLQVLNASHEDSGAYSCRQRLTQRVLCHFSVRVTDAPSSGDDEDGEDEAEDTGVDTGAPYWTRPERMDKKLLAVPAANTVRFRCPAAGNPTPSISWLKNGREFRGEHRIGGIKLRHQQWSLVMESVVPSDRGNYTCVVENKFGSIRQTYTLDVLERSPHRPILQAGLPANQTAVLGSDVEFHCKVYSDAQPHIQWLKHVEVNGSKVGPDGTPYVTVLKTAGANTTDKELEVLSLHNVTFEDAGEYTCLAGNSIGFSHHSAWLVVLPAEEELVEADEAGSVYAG
Excerpt: (§1) An ELISA-based blocking assay was developed to determine the ability of anti-FGFR3 antibodies to block the binding of human fibroblast growth factor receptor 3 isoform b (hFGFR3b) or human fibroblast growth factor receptor 3 isoform c (hFGFR3c) to human fibroblast growth factor acidic (hFGF acidic) or basic (hFGF basic) ligands.
(§2) The human FGFR3b recombinant protein used in the experiments had the hFGFR3b extracellular domain (amino acids E23-G377) expressed with the Fc portion of the mouse IgG2a at the C-terminus (amino acids E98-K330) (hFGFR3b-mFc, accession #NM_001163213.1). The hFGFR3c and hFGF acidic proteins were purchased commercially. […]
(§3) In the blocking assay, a 96-well microtiter plate was coated with either hFGF acidic or hFGF basic proteins at […] in PBS+10 mg/ml heparin overnight at 4° C. […] After a 1 hour incubation at room temperature, plates were washed, and plate-bound hFGFR3b-mFc or hFGFR3c-hFc proteins were detected with horseradish peroxidase (HRP) conjugated goat anti-mouse or goat anti-human Fcγ fragment specific antibodies. The plates were then developed using TMB substrate solution (BD Biosciences) according to the manufacturer's recommended procedure and absorbance at 450 nm was measured on a Victor X5 plate reader.
(§4) Binding data were analyzed using a sigmoidal (four-parameter logistic) dose-response model using GraphPad Prism software. […]

[2] = biological target: T2, human FGFR3b (hFGFR3b.mmH, REGN3152) (Homo sapiens, UniProt P22607); experiment: Biacore SPR binding kinetics, monomeric human FGFR3b to captured antibodies; settings: 25° C.
T2 construct: REGN3152 (human FGFR3b expressed with a C-terminal myc-myc-hexahistidine tag)
T2 sequence (P22607 with tags, fused parts or gaps isoform P22607-2): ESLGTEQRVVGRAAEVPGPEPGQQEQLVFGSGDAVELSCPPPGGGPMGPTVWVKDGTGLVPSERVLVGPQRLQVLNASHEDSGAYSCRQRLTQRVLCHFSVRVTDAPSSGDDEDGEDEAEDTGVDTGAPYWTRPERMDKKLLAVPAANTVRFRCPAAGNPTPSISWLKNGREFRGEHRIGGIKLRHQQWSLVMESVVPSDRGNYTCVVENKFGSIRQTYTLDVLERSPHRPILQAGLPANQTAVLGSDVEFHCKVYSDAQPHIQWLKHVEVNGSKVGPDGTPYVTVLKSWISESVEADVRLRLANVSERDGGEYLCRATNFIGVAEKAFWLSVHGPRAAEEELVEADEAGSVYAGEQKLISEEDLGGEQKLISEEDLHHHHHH
Description: (§5) Biacore binding kinetics of anti-FGFR3 antibodies, in an antibody capture format, to monomeric human FGFR3b, cynomolgus FGFR3b, murine FGFR3b, human FGFR3c, and dimeric human FGFR3b ecto domain recombinant proteins at 25° C. were analyzed.
(§6) Equilibrium dissociation constants (KD values) for human FGFR3b expressed with a C-terminal myc-myc-hexahistidine tag (hFGFR3b.mmH, REGN3152) or cynomolgus FGFR3b expressed with a C-terminal myc-myc-hexahistidine tag (mfFGFR3b.mmH, REGN3521), or murine FGFR3b expressed with a C-terminal myc-myc-hexahistidine tag (mFGFR3b.mmH, REGN3215) or human FGFR3c expressed with a C-terminal myc-myc-hexahistidine tag (hFGFR3c.mmH, REGN3155) or human FGFR3b expressed with an C-terminal murine Fc tag (hFGFR3b.mFc, REGN3153) binding to purified anti-FGFR3 antibodies were determined using a real-time surface plasmon resonance biosensor technology using a Biacore 3000 or Biacore 4000 instrument. […] Antibody-reagent association was monitored for 5 minutes while dissociation in HBS-EP running buffer was monitored for 10 minutes. […]
(§7) The specific SPR-Biacore sensorgrams were obtained by a double referencing procedure. […] Kinetic association (ka) and dissociation (kd) rate constants were determined by fitting the real-time sensorgrams to a 1:1 binding model using Scrubber v2.0c curve fitting software. […]

[3] = biological target: T3, human FGFR3c (hFGFR3c.mmH, REGN3155) (Homo sapiens, UniProt P22607); experiment: Biacore SPR binding kinetics, monomeric human FGFR3c to captured antibodies; settings: 25° C.
T3 construct: REGN3155 (human FGFR3c expressed with a C-terminal myc-myc-hexahistidine tag)
T3 sequence (P22607 with tags, fused parts or gaps): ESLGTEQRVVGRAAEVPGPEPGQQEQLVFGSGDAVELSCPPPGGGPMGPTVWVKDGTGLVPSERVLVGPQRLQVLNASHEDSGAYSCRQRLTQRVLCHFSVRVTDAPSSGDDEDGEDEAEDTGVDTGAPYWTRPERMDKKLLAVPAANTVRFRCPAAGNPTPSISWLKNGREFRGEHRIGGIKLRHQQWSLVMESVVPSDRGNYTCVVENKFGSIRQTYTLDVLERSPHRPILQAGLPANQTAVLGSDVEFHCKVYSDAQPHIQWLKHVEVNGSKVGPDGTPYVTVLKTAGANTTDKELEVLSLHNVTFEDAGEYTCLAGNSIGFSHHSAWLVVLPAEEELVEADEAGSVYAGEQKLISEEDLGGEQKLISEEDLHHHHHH
Description: as §5, §6, §7

[4] = biological target: T4, hFGFR3c-hFc binding to hFGF basic protein (Homo sapiens, UniProt P22607); experiment: ELISA blocking of hFGFR3c-hFc binding to hFGF basic
T4 construct: hFGFR3c extracellular domain (amino acids Glu23-Gly375); purchased R&D Systems 766-FR-050
T4 sequence (P22607 23-375): T1 sequence (P22607 23-375)
Excerpt: as §1, §2, §3, §4

[5] = tested on: BaF3 cells expressing FGFR3 S249C; experiment: BaF3 proliferation assay, FGFR3 S249C (TKI resistance study); format: cell-based, murine; settings: 72 h, CellTiter-Glo, FIG. 12A left; read-out: IC50, growth of BaF3 cells expressing FGFR3 S249C
Description: (§8) IL-3 dependent murine pro B cell line BaF3 cells were engineered to stably express full length human FGFR3b S249C, V557L, V557M, S249C/V557L, S249C/V557M (accession number for WT FGFR3b NP_001156685.1, amino acids M1-T808). Cells were maintained in RPMI 1640+10% FBS+P/S/G+1 ng/ml mouse IL-3+500 ug/ml Neomycin; 37° C. 5% CO2. For proliferation assays, cells were washed with IL-3-free culture media and plated at 10^5 cells/well into 96-well black wall tissue culture plates. Cells were treated with 1:3 serially diluted antibody as indicated in the presence or absence of 5 μg/ml heparin and 1 nM human FGF1. After addition of antibodies, cells were incubated at 37° C./5% CO2 for 72 h followed by the addition of an equal volume of CellTiter-Glo™ (Promega) reagent to lyse cells and detect luciferase activity. Luminescence signal was quantitated with Envision plate reader (PerkinElmer). EC50 values of the antibodies were determined using GraphPad Prism software.

[6] = tested on: BaF3 cells expressing FGFR3 S249C/V557L; experiment: BaF3 proliferation assay, FGFR3 S249C/V557L; format: cell-based, murine; settings: FIG. 12A right
Description: as §8

[7] = tested on: CD73 protein level in UMUC14 cells; experiment: CD73 expression in UMUC14 cells in vitro, Western blot; format: cell-based; settings: 1 nM, 10 nM, 100 nM, 48 hrs, FIG. 6
Description: To investigate the effect of anti-FGFR3 antibody or tyrosine kinase inhibitor (AZD4547; commercially available) on CD73 expression, UMUC14 bladder cancer cells were seeded in 6 well tissue culture plate (Corning) in complete medium (MEM medium with 10% FBS, 1% Non-Essential Amino Acids, Pen/Strep) and cultured overnight at 37° C. 5% CO2. Cells were then treated with antibodies or inhibitors at indicated concentration (100 nM, 10 nM or 1 nM) for 48 hrs. Cells were washed with pre-chilled PBS and collected in lysis buffer containing protease and phosphatase inhibitors. Equal amount of cell lysates were analyzed by SDS-PAGE. Blots were blocked in 0.5% Tween 20 in Tris buffered saline (TBS) containing 5% non-fat dry milk followed by overnight incubation with anti-CD73 primary antibody (Cell Signaling Technology). After washing 3× with TBST and incubation with secondary antibody, membranes were developed with SuperSignal West Pico or Femto substrate and luminescence images were captured with a C300 imager (Azure Biosystems).

[8] = tested on: BaF3 cells expressing FGFR3 S249C/V557M; experiment: BaF3 proliferation assay, FGFR3 S249C/V557M; format: cell-based, murine; settings: FIG. 12B
Description: as §8

[9] = tested on: CD73 protein level in Fadu S249C tumors; experiment: CD73 expression in Fadu S249C tumors in vivo, Western blot; parameters: species or system SCID mice; settings: FGFR3 mAb 15 mg/kg one intraperitoneal dose; AZD4547 25 mg/kg daily gavage; FIG. 11A-11B
Description: To test the effect of anti-FGFR3 inhibitory antibody or tyrosine kinase inhibitor (AZD4547) on CD73 expression in vivo, tumor cells (5×10^6 UMUC14, 3×10^6 Fadu EV or S249C, in 50% Matrigel) were implanted subcutaneously into the right flank of 6 to 8-week-old female SCID mice (Jackson Laboratory). Once tumors were established (˜200 mm^3 in volume), mice were randomized into treatment groups (n=5-6 mice per group) and injected intraperitoneally once with anti-FGFR3 antibodies (15 mg/kg) or isotype control. Tyrosine kinase inhibitor AZD4547 (25 mg/kg) was administered once daily by oral gavage for 3 days. Tumors were collected 4 days post treatment initiation. Tumors were collected, snap frozen and lysed in RIPA buffer. Equal amount of tumor lysates were analyzed by SDS-PAGE and blotted with anti-CD73 and anti-FGFR3 antibodies as described above. Membranes were developed with SuperSignal West Pico or Femto substrate and luminescence images were captured with a C300 imager (Azure Biosystems). Intensity of each CD73 and actin band was quantitated using Image J (NIH), and the ratio of CD73/actin for each sample were graphed using Prism Graphpad.

Antibody blocking 0.4 nM hFGFR3c-hFc binding to hFGF acidic protein, % Blocking at 200 nM mAb [1] [%]	ka [2] [M⁻¹ s⁻¹]	kd [2] [s⁻¹]	ka [3] [M⁻¹ s⁻¹]	kd [3] [s⁻¹]	Antibody blocking 7 nM hFGFR3c-hFc binding to hFGF basic protein, % Blocking at 200 nM mAb [4] [%]	Substance	pIC50 [5]	growth inhibition of BaF3 cells expressing FGFR3 S249C+V557L (in words) [6]	CD73 expression in UMUC14 cells in vitro (in words) [7]	growth inhibition of BaF3 cells expressing FGFR3 S249C+V557M (in words) [8]	CD73 expression in Fadu S249C tumors in vivo (in words) [9]
86	883000	0.000616	544000	0.00132	87	REGN6331: comparator; relates to FGFR3b mAb, hIgG1 (mAb 184.6.1 N54S, Genentech); HC SEQ ID NO: 244, LC SEQ ID NO: 243 [reference compound]					
						AZD4547 [reference compound]	8.00	ineffective	dose dependent downregulation of CD73 expression	ineffective	decreased expression of CD73 relative to mice treated with control
